Source: patent US20230183291A1, “ANTI-INFECTIVE BICYCLIC PEPTIDE LIGANDS” (priority 2020, published 2023)
Numbered stars: 1 amine (or outer) side, 2 acyl side, 3 side chain; on linkers, the order of the positions; unused ones are H or OH. Bridge positions count the residues as written; N and C are the ends. Square brackets hold non-standard residues; d marks the D form. Primed or numbered codes have the meaning given here. Ends that are not written are not given here. Arg(Me)′ = delta-N-methyl arginine, CN(CCC[C@H](N[*:1])C(=O)[*:2])C(=N)N; TATA = O=C(CC[*:1])N1CN(C(=O)CC[*:2])CN(C(=O)CC[*:3])C1; 1Nal = N[C@@H](Cc1cccc2ccccc12)C(=O)O; 2Nal = N[C@@H](Cc1ccc2ccccc2c1)C(=O)O; hArg = N=C(N)NCCCC[C@H](N)C(=O)O; Aib = CC(C)(N)C(=O)O; Sar = CNCC(=O)O

Experiments:
[1] = target: ACE2 protein (Homo sapiens (Human)), Q9BYF1; test: fluorescence polarisation direct binding, 1 nM fluorescein tracer, ACE2 titrated
Sequence of ACE2 protein (Homo sapiens (Human)), Q9BYF1 (Q9BYF1 18-740 limits assumed): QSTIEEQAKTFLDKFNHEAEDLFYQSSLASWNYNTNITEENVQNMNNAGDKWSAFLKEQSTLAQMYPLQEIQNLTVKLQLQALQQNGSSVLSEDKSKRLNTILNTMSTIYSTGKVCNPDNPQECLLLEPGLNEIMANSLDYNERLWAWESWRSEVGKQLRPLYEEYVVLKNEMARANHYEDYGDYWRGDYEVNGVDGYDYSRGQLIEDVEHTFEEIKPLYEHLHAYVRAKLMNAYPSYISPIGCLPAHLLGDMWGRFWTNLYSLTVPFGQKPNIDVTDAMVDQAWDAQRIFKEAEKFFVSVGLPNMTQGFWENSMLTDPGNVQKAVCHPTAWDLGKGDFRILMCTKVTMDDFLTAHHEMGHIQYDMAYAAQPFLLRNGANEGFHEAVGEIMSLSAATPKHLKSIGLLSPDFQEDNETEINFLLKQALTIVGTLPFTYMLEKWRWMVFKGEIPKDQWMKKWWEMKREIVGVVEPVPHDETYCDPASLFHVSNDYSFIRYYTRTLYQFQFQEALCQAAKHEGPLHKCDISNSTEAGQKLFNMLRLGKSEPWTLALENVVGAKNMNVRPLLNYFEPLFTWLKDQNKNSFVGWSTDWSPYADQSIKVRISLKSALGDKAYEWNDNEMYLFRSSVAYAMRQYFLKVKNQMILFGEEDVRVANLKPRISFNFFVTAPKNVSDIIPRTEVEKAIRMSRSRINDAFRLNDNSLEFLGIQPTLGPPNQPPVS

[2] = target: Biotinylated Human ACE2, His, Avitag protein (ACROBiosystems, AC2-H82E6) (human), Q9BYF1; test: SPR single cycle kinetics, ACE2 captured on CAP chip, peptide analyte; geometric mean
Sequence of Biotinylated Human ACE2, His, Avitag protein (ACROBiosystems, AC2-H82E6) (human), Q9BYF1 (Q9BYF1 18-740 limits assumed): as above

Row | Binder | Kd [1] | Kd [2]
1 | ACNAVLCSWA[hArg]ANSFCA[Sar][Sar][Sar][Sar][Sar][Sar]K(fluorescein) (linker 2-7-16 via TATA) [BCY16874] | 62 nM | 4.1 nM
2 | ACNAVLCSW[Aib]RANSFCA[Sar][Sar][Sar][Sar][Sar][Sar]K(fluorescein) (linker 2-7-16 via TATA) [BCY16872] | 2.9 nM | 8.9 nM
3 | ACVRSHCSSLLPRIHCA[Sar][Sar][Sar][Sar][Sar][Sar]K(fluorescein) (linker 2-7-16 via TATA) [BCY15283] | 21.9 nM | –
4 | ACNAVLCSWA[Arg(Me)′]ANSFCA[Sar][Sar][Sar][Sar][Sar][Sar]K(fluorescein) (linker 2-7-16 via TATA) [BCY16863] | – | 3.5 nM
5 | ACHKFPCRDPQQYLFCA[Sar][Sar][Sar][Sar][Sar][Sar]K(fluorescein) (linker 2-7-16 via TATA) [BCY15288] | 225 nM | –
6 | ACNAVLCSWARANSFCA[Sar][Sar][Sar][Sar][Sar][Sar]K(fluorescein) (linker 2-7-16 via TATA) [BCY15423] | 5.53 nM | 3.4 nM
7 | ACAPILCRWAERQGYCA[Sar][Sar][Sar][Sar][Sar][Sar]K(fluorescein) (linker 2-7-16 via TATA) [BCY15419] | 20.4 nM | –
8 | ACNAVLCS[2Nal]ARANSFCA[Sar][Sar][Sar][Sar][Sar][Sar]K(fluorescein) (linker 2-7-16 via TATA) [BCY16867] | 50.7 nM | –
9 | ACNAVLCS[1Nal]ARANSFCA[Sar][Sar][Sar][Sar][Sar][Sar]K(fluorescein) (linker 2-7-16 via TATA) [BCY16866] | 2.6 nM | 2.1 nM

More lines, now with the values ahead:

Row | Kd [1] | Kd [2] | Binder
10 | 98.3 nM | – | ACLELYQCWRGKCA[Sar][Sar][Sar][Sar][Sar][Sar]K(fluorescein) (linker 2-8-13 via TATA) [BCY15420]
11 | 157 nM | – | ACTRPWCHSLLPRATCA[Sar][Sar][Sar][Sar][Sar][Sar]K(fluorescein) (linker 2-7-16 via TATA) [BCY15285]
12 | 134 nM | – | ACPSQYKCWRGKCA[Sar][Sar][Sar][Sar][Sar][Sar]K(fluorescein) (linker 2-8-13 via TATA) [BCY15421]
13 | 65.5 nM | – | ACGRQFCHTLMPRHLCA[Sar][Sar][Sar][Sar][Sar][Sar]K(fluorescein) (linker 2-7-16 via TATA) [BCY15284]
14 | 130 nM | – | ACLEVYKCWRGKCA[Sar][Sar][Sar][Sar][Sar][Sar]K(fluorescein) (linker 2-8-13 via TATA) [BCY15422]
15 | 5.8 nM | 7.7 nM | ACAN[Aib]VLCSWARANSFCA[Sar][Sar][Sar][Sar][Sar][Sar]K(fluorescein) (linker 2-8-17 via TATA) [BCY16871]
